Tests used:
[1] = biological target: T1, CtKti12NTD (Thermochaetoides thermophila, UniProt G0SHI1); test: X-ray crystal structure, […] Å; format: binding; conditions: bound as ADP·AlF3 with Mg2+, transition state mimic; nucleotide site
T1 sequence (G0SHI1 2-252): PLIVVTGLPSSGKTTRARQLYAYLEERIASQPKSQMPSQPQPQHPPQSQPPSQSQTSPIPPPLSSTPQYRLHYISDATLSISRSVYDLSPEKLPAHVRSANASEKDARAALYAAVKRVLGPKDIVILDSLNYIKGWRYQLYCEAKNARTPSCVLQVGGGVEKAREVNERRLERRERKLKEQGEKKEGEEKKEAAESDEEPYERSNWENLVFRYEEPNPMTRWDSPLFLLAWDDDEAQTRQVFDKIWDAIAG

[2] = biological target: T2, CtKti12 (also ChKti12), full length (Thermochaetoides thermophila, UniProt G0SHI1); conditions: 1 mM ATP; 2 mM MgCl2; pH 7.5
T2 sequence (G0SHI1 1-378): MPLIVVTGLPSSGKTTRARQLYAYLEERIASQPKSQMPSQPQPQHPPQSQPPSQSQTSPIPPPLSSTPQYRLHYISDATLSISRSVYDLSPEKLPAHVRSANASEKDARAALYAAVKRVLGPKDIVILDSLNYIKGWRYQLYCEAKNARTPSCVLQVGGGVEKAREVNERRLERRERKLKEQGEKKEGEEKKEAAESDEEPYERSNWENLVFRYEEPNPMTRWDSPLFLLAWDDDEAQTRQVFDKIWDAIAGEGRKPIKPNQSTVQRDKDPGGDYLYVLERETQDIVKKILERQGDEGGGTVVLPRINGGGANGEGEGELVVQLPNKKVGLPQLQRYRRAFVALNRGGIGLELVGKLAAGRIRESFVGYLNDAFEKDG

[3] = biological target: T3, Full length GST-ScElp1 (Saccharomyces cerevisiae, UniProt Q06706 1-1349); test: pull-down
T3 sequence (looked up): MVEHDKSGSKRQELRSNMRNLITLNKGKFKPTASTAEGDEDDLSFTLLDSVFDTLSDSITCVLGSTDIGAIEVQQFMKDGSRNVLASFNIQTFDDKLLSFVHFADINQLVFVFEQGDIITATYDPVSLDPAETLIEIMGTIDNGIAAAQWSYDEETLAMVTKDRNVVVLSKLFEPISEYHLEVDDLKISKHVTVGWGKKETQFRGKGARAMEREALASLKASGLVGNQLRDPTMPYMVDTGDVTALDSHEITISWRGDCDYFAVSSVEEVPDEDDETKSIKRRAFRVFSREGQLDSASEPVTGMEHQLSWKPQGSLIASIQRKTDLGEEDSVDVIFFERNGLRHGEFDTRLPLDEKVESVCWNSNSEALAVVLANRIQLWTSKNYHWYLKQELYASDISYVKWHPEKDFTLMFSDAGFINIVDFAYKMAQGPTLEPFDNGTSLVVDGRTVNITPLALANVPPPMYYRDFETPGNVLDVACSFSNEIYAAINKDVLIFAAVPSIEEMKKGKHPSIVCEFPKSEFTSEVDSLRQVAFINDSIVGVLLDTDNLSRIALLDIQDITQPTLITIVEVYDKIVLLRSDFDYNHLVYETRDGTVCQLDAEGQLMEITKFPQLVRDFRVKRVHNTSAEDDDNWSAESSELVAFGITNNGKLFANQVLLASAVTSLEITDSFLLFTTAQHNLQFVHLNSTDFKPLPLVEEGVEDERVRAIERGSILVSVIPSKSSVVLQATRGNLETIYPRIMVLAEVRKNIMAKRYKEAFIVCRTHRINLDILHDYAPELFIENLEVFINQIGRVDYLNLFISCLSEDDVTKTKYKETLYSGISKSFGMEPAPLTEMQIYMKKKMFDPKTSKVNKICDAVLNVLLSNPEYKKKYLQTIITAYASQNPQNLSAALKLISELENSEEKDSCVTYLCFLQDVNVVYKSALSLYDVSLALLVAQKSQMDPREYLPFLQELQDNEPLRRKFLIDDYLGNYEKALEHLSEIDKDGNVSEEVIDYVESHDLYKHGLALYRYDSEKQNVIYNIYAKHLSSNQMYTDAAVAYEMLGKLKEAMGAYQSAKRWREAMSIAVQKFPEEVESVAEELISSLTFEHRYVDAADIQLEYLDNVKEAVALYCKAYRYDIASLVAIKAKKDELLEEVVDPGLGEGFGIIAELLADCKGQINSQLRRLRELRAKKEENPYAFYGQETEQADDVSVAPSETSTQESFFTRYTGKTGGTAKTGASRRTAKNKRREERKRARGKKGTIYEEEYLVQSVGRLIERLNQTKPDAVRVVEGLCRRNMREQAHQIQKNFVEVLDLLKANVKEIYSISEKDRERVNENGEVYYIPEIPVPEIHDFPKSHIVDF

[4] = biological target: T4, GST-ScElp1 first WD40 domain (aa 42-431) (Saccharomyces cerevisiae, UniProt Q06706 42-431); test: pull-down
T4 sequence (looked up): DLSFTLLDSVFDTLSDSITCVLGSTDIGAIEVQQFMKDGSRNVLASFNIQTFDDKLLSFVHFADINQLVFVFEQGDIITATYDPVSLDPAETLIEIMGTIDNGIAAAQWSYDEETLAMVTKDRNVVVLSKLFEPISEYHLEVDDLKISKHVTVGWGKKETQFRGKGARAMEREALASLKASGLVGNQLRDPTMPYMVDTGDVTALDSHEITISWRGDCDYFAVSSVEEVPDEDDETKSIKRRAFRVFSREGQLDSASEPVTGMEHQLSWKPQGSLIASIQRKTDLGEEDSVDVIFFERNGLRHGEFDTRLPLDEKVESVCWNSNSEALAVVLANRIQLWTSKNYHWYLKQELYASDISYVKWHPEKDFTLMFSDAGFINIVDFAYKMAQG

[5] = biological target: T5, GST-ScElp1 first and second WD40 domains (aa 1-734) (Saccharomyces cerevisiae, UniProt Q06706 1-734); test: pull-down
T5 sequence (looked up): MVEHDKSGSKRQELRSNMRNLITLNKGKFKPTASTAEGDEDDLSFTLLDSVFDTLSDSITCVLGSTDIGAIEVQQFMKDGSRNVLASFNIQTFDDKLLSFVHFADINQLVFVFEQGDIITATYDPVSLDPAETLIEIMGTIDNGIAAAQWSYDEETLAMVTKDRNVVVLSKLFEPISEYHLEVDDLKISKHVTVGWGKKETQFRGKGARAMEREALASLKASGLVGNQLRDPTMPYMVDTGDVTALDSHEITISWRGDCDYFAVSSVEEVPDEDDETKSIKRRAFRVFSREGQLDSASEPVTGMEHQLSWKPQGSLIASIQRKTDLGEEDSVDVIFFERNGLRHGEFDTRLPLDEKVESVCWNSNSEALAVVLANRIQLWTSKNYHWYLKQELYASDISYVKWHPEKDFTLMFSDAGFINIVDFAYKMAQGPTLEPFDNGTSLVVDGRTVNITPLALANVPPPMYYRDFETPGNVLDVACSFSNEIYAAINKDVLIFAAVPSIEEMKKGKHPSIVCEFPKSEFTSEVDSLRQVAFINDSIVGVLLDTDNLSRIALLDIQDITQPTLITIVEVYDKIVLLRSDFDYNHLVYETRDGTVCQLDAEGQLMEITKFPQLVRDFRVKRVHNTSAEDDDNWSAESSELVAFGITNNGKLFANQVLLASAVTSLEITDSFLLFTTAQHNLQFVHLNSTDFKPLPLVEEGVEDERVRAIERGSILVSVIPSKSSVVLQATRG

Which “X-ray crystal structure, 2.4 Å” value [1] does the source give for `Nc1ncnc2c1ncn2[C@@H]1O[C@H](COP(=O)(O)OP(=O)(O)O)[C@@H](O)[C@H]1O` [ADP] here?
The value was “We solved the structure of CtKti12NTD in complex with ADP·AlF3”.

How did the dTm [2] turn out when `Nc1ncnc2c1ncn2[C@@H]1O[C@H](COP(=O)(O)OP(=O)(O)OP(=O)(O)O)[C@@H](O)[C@H]1O` [ATP] was run?
Its dTm is “addition of ATP contributed to an increased thermostability of CtKti12 and ScKti12 in vitro”.

B1: ScKti12-6xHis (Saccharomyces cerevisiae Kti12, wild type) (natural protein)
chain: MPLVLFTGYPCSGKTTLAKHLVQLLQSKIDATPSLSKYSITYHSDESLGIKHSDYITSQDERKLRSEIISAVKRDLSKNKIVIVDSLNYIKGFRYQLHCEVKNLSTTFCVIQTLCPPETIFEWNKTSNPNPWEPELLNQLIQRYEEPNSSNRWDSPLFAILTPQDNITDYIDDICKVVFQTSKSAKNSGHNDPLSKGLQKPNSATVLKPASQSNFIQVLDIETSKIIKTIMNHIKSLTSIGGVSNGTRVIVSEGITDINDDGCFFVDLPIGNVVTLAQLQRLKRQFINFNKLRDIDQDRIGPLFADYLNKNLN
Does B1 bind [3]?
Result: binds

Does B1 bind [4]?
Result: binds

Does B1 bind [5]?
Result: binds

Source: article PMC6511879 (Nucleic Acids Research, 2019)
